The target in the assay is Epidermal growth factor receptor of HCT-116 cells (human (HCT-116, a human colon cancer cell line)) (UniProt P00533). Description: cell-based or functional assay.

Substance “ERRP fusion protein bound to MBP (from UniProt Q01279 25-448)” returned an EGF-R Tyr-K activity in HCT-116 cells (reduction against cells exposed to MBP alone or control cells) of 80 to 90%.
